Measured values reported in patent publication US20220409661A1 (published 2022).

T1: WT-1 (Wilms tumor protein 1) peptide on HLA-A*02:01 (human)
T1 peptide: RMFPNAPYL


Target: T1, WT-1 (Wilms tumor protein 1) peptide on …
Assay: multimer staining

binding result	Binder
recognises	TCR #10 (TCR, V domains shown) Valpha: AQTVTQSQPEMSVQEAETVTLSCTYDTSESNYYLFWYKQPPSRQMILVIRQEAYKQQNATENRFSVNFQKAAKSFSLKISDSQLGDTAMYFCAFNPWENYGQNFVFGPGTRLSVLP Vbeta: GAVVSQHPSWVICKSGTSVKIECRSLDFQATTMFWYRQFPKQSLMLMATSNEGSKATYEQGVEKDKFLINHASLTLSTLTVTSAHPEDSSFYICSARPHSLTDTQYFGPGTRLTVL
recognises	TCR #6 (TCR, V domains shown) Valpha: EDQVTQSPEALRLQEGESSSLNCSYTVSGLRGLFWYRQDPGKGPEFLFTLYSAGEEKEKERLKATLTKKESFLHITAPKPEDSATYLCAVQTMDGNQFYFGTGTSLTVIP Vbeta: NAGVTQTPKFQVLKTGQSMTLQCAQDMNHEYMSWYRQDPGMGLRLIHYSVGAGITDQGEVPNGYNVSRSTTEDFPLRLLSAAPSQTSVYFCASSYSLWDLQETQYFGPGTRLLVL
